Reference: article PMC12144868, “New Transferrin Receptor‐Targeting Conjugate Effectively Delivers DNA to Mouse Brain”

Target: human transferrin receptor (hTfR), extracellular domain (Homo sapiens, UniProt P02786 89-760)
Experiment: SPR; ka 6.30E+06; kd 1.38E-04 s-1; SPR Biacore T100, SA chip, biotinylated aptamer heated to 65°C then cooled to 37°C before immobilization; five hTfR concentrations at 10 uL/min; 1:1 model with
Settings: protein: commercial; tags: N-terminal tag (His implied by Ni-NTA; tag name cut in the text); chain copies: 2; label: biotin

Chain of human transferrin receptor (hTfR), extracellular domain (P02786 89-760): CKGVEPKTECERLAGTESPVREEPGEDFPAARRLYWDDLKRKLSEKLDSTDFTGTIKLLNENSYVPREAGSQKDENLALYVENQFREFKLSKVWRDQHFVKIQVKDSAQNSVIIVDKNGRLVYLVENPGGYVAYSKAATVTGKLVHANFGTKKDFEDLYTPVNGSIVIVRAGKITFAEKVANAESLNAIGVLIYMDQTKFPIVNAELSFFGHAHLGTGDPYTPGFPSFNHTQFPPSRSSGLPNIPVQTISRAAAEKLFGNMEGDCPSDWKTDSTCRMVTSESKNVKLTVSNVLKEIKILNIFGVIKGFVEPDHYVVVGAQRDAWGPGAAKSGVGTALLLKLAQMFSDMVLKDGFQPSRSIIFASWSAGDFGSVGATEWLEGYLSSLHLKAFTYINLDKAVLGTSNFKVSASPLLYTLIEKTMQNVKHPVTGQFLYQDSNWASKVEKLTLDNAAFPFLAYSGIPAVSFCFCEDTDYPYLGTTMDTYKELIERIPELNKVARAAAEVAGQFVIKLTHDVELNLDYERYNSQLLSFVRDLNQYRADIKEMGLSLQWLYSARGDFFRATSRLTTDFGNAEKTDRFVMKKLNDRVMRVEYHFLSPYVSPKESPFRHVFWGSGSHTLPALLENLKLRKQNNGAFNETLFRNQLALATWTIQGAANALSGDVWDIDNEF

B1: tTfR aptamer 22-nt (truncated) (XNA)
RNA: UUUAUUCACAUUUUUGAAUUGA
modifications: all U and C 2'F-2'-deoxy (i2FU, i2FC); A and G ribo
Question: How did the Kd turn out when B1 was run?
Answer: 0.022 nM
